How the values were obtained:
[1] = substrate: O=P(O)(O)OC[C@H]1OC(O)[C@H](O)[C@@H](O)[C@@H]1O; assay: cells, lysate or membranes named; details: Line-Weaver Burk analysis, pH 7.5
[2] = substrate: NC(=O)c1ccc[n+]([C@@H]2O[C@H](COP(=O)([O-])OP(=O)(O)OC[C@H]3O[C@@H](n4cnc5c(N)ncnc54)[C@H](O)[C@@H]3O)[C@@H](O)[C@H]2O)c1; assay: Km and Vmax of recombinant PINO1 (Biogel 0.5A purified, Line-Weaver Burk analysis); assay type: biochemical, Porteresia coarctata; details: other: recombinant PINO1, expressed in E. coli BL21 (DE3), pH 7.5
Experimental: (§1) The cDNA for RINO1 and PINO1 were subcloned into suitable cloning sites of the bacterial expression vector pET 20B (+). The resulting plasmids were introduced into the host strain E. coli BL-21 (DE3). The bacteria were grown in LB medium up to A600 of 0.5-absorbance unit and induced by 0.5 mM IPTG for 6 hours at 30° C. The bacteria were collected by centrifugation and lysed by sonication in a buffer containing 20 mM Tris-HCl, pH 7.5. 10 mM each of NH4Cl and ME, 2 mM PMSF. The lysed extracts were centrifuged and protein from both soluble and membrane fractions were analyzed by 10% SDS-PAGE according to Lammeli (Nature, 227, 660-605, 1970) followed by western blot for immunodetection. The separated proteins were blotted onto PVDF membrane and the blot was probed with rabbit anti L-myo-inositol 1-phosphate synthase antibody (1:500) raised against purified recombinant L-myo-inositol 1-phosphate synthase of Entamoeba (Lohia et al, Mol. Biochem. Parasitol. 98, 67-79, 1999) or purified cytosolic L myo-inositol 1-phosphate […] from Oryza leaves. Bound antibody was detected by the chemiluminiscence (kit from Amersham Life Sciences). […] The expressed RINO1 and PINO1 proteins were solubilized from the pellet fractions in solubilization buffer (8M urea, 0.5 M NaCl, 20 mM Tris-HCl pH 7.5, 10 mM ME, 2 mM PMSF) kept for 30 minutes at room temperature. […]

[3] = substrate: NC(=O)c1ccc[n+]([C@@H]2O[C@H](COP(=O)([O-])OP(=O)(O)OC[C@H]3O[C@@H](n4cnc5c(N)ncnc54)[C@H](O)[C@@H]3O)[C@@H](O)[C@H]2O)c1; assay: Km and Vmax of recombinant RINO1 (Biogel 0.5A purified, Line-Weaver Burk analysis); assay type: biochemical, Oryza sativa; details: other: recombinant RINO1, expressed in E. coli BL21 (DE3), pH 7.5
Experimental: as §1

| Protein | Km ([1]; other: recombinant PINO1, expressed in E. coli BL21 (DE3)) | Km [2] | Km ([1]; other: recombinant RINO1, expressed in E. coli BL21 (DE3)) | Km [3] |
| --- | --- | --- | --- | --- |
| Porteresia coarctata L-myo-inositol 1-phosphate synthase PINO1, recombinant (GenBank AF 412340) (Oryza coarctata) (protein, homotrimer) MFIESFRVESPHVRYGAAEIESEYRYDTTELVHESHDGASRWVVRPKSVQYHFRTSTTVPKLGVMLVGWGGNNGSTLTAGVIASREGISWATKDKVQQANYYGSLTQASTIRVGSYNGEEIYAPFKSLLPMVNPDDLVFGGWDISNMNLADAMTRAKVLDIDLQKQLRPYMESWCLSLASMIPTSSPLTRDPARTMSSREPRRSRWGRSSKDIREFKENNKMDKAVVLWTANTERYNNCLCLGLMTNGKPSASVDRNQAEISPSTLYCHCLASLEGVRSITGALKKKSWPGIDDLAIKKKLPDPGGLIQKRGKPKKKTGLVDFLMGAGIKPTSIVSYNHLGNNDGTNLSAPQTFRSKEISKSSVVDDMVSSNAILYEPGEHPDHVVVIKYVPYVGDSKRAMDEYTSEIFMGGKNTIVLHNTCEDSLLAAPIILDLVLLAELSTRIQLKGEGEEKFHSFHPVATILSYLTKAPLVPPGTPVVNALAKQRAMLENIMRACVGLAPENNMILEYK | 2500 µM | 166 µM |  |  |
| Oryza sativa L-myo-inositol 1-phosphate synthase RINO1, recombinant (GenBank AB012107) (Oryza sativa Japonica Group) (protein, homotrimer) MFIESFRVESPHVRYGAAEIESDYQYDTTELVHESHDGASRWIVRPKSVRYNFRTTTTVPKLGVMLVGWGGNNGSTLTAGVIANREGISWATKDKVQQANYYGSLTQASTIRVGSYNGEEIYAPFKSLLPMVNPDDLVFGGWDISNMNLADAMTRAKVLDIDLQKQLRPYMESMVPLPGIYDPDFIAANQGSRANNVIKGTKKEQMEQIIKDIREFKEKSKVDKVVVLWTANTERYSNVCVGLNDTMENLLASVDKNEAEISPSTLYAIACVMEGIPFINGSPQNTFVPGLIDLAIKNNCLIGGDDFKSGQTKMKSVLVDFLVGAGIKPTSIVSYNHLGNNDGMNLSAPQTFRSKEISKSNVVDDMVSSNAILYELGEHPDHVVVIKYVPYVGDSKRAMDEYTSEIFMGGKSTIVLHNTCEDSLLAAPIILDLVLLAELSTRIQLKAEGEEKFHSFHPVATILSYLTKAPLVPPGTPVVNALAKQRAMLENIMRACVGLAPENNMILEYK |  |  | 3000 µM | 188 µM |

Reference: patent publication US20060148059A1, “Salt tolerant l-myo-inositol 1-phosphate synthase and the process of obtaining the same” (priority 2002, published 2006)
